This note sets out measurements from IntAct's records for PubMed 15743816.

To fix the notation:
B1: Serine/threonine-protein kinase STE20 (Saccharomyces cerevisiae), Q03497 (parent)
chain: MSNDPSAVSELPDKDSLDNGISNDNERAMGGNGDGGDGLRLPRTTGTLNVNALQKGTNAAHEAGGYKSMDPAKNAETTNDDDNNVVSLDDPIQFTRVSSSSVISGMSSSMSPHSNIDETKSLEAVTPNINTSNITPDHSADNTFSTINASESDHQFNDTLLSKLSLTDSTETIENNATVKHQQPVASSTVNSNKSSTDIRRATPVSTPVISKPSMTTTPRQINSASHSLSNPKHKQHKPKVKPSKPEAKSKPVSVKKSFPSKNPLKNSSPPKKQTEKSYYSSSSKKRKSGSNSGTLRMKDVFTSFVQNIKRNSQDDKRASSSSNNSSSSSITTALRISTPYNAKHIHHVGVDSKTGEYTGLPEEWEKLLTSSGISKREQQQNMQAVMDIVKFYQDVTETNGEDKMFKTFNTTTGLPGSPQVSTPPANSFNKFPPSTSDSHNYGSRTGTPMSNHVMSPTLNTDSSSANGKFIPSRPAPKPPSSASASAPIIKSPVMNSAANVSPLKQTHAPTTPNRTSPNRSSISRNATLKKEEQPLPPIPPTKSKTSPIISTAHTPQQVAQSPKAPAQETVTTPTSKPAQARSLSKELNEKKREERERRKKQLYAKLNEICSDGDPSTKYANLVKIGQGASGGVYTAYEIGTNVSVAIKQMNLEKQPKKELIINEILVMKGSKHPNIVNFIDSYVLKGDLWVIMEYMEGGSLTDVVTHCILTEGQIGAVCRETLSGLEFLHSKGVLHRDIKSDNILLSMEGDIKLTDFGFCAQINELNLKRTTMVGTPYWMAPEVVSRKEYGPKVDIWSLGIMIIEMIEGEPPYLNETPLRALYLIATNGTPKLKEPENLSSSLKKFLDWCLCVEPEDRASATELLHDEYITEIAEANSSLAPLVKLARLKKVAENMDADEDNDDDNDNEHINKTNNCDDNNDSKETVNLDVTEDDKQK
partner: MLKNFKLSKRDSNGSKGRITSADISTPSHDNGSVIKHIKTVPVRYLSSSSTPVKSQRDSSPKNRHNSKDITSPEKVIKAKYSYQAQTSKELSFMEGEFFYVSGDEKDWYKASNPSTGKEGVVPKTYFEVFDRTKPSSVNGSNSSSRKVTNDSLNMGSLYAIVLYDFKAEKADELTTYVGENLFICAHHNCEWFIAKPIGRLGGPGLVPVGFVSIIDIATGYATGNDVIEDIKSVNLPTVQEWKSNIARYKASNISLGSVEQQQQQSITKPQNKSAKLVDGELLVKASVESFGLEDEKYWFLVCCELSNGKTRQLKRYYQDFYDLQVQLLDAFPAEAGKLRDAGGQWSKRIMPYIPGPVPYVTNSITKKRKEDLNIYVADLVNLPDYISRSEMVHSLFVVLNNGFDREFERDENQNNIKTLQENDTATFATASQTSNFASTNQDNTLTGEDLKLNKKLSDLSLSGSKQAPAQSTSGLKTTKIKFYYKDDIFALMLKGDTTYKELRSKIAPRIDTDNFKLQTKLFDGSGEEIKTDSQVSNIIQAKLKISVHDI
B2: Serine/threonine-protein kinase STE20 (Saccharomyces cerevisiae), Q03497 (parent)
chain: B1 chain
partner: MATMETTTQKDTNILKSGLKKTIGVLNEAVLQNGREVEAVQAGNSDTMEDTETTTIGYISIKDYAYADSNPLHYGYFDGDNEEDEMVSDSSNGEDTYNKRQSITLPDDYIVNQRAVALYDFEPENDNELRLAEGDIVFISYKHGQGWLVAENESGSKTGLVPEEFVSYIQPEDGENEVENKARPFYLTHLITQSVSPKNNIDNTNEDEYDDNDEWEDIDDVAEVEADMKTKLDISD
B3: Bud emergence protein 1 (Saccharomyces cerevisiae), P29366 (parent)
chain: B1 partner
partner: B1 chain

Variants of B1 are the subject of one assay. The settings on record: with bem1_yeast BEM1, P29366.
As for P472A, the “effect of a mutation on the interaction” value is reported as “decreasing interaction”. Still for that read-out and setting: the result for P479A reads “decreasing interaction”; that for S473A, “decreasing interaction”.

For R474G, the “effect of a mutation on the interaction” value is listed as “decreasing interaction”. The same measure, in the same setting: the result for I471G reads “decreasing interaction”; that for F470G, “decreasing interaction”. Regarding P477A, the “effect of a mutation on the interaction” value is “decreasing interaction”. For the variant P480A, the “effect of a mutation on the interaction” value is recorded as “decreasing interaction”. On the same count and under the same terms, the result for P475G reads “decreasing interaction”; that for P475G;P477A, “decreasing interaction”. With A476G, the “effect of a mutation on the interaction” value is recorded as “decreasing interaction”.

The variants in another assay derive from B1. The following applies: with bem1_yeast BEM1, P29366. The source holds these as a separate data set.
P475G;P477A: the “effect of a mutation on the interaction” value is “decreasing interaction”.

Variants of B2 are the subject of the next assay. The following applies: with nbp2_yeast NBP2, Q12163.
As to P475G;P477A, the “effect of a mutation on the interaction” value is given as “decreasing interaction”.

The variants in another assay derive from B3. The settings on record: with ste20_yeast STE20, Q03497.
In the case of MLKNFKLSKRDSNGSKGRITSADISTPSHDNGSVIKHIKTVPVRYLSSSSTPVKSQRDSSPKNRHNSKDITSPEKVIKAKYSYQAQTSKELSFMEGEFFYVSGDEKDWYKASNPSTGKEGVVPKTYFEVFDRTKPSSVNGSNSSSRKVTNDSLNMGSLYAIVLYDFKAEKADELTTYVGENLFICAHHNCEAFIAKPIGRLGGPGLVPVGFVSIIDIATGYATGNDVIEDIKSVNLPTVQEWKSNIARYKASNISLGSVEQQQQQSITKPQNKSAKLVDGELLVKASVESFGLEDEKYWFLVCCELSNGKTRQLKRYYQDFYDLQVQLLDAFPAEAGKLRDAGGQWSKRIMPYIPGPVPYVTNSITKKRKEDLNIYVADLVNLPDYISRSEMVHSLFVVLNNGFDREFERDENQNNIKTLQENDTATFATASQTSNFASTNQDNTLTGEDLKLNKKLSDLSLSGSKQAPAQSTSGLKTTKIKFYYKDDIFALMLKGDTTYKELRSKIAPRIDTDNFKLQTKLFDGSGEEIKTDSQVSNIIQAKLKISVHDI [W192A], the “effect of a mutation on the interaction” value is on record as “decreasing interaction”.
